Assay results from patent publication US20090208416A1.

What was measured:
[1] = molecular target: NKG2A on cynomolgus monkey NK cells (cynomolgus monkey) (UniProt Q68VD2); assay: FACS cynomolgus whole blood, animal R390
[2] = molecular target: NKG2A on rhesus monkey (Macaca mulatta) NK cells (rhesus monkey (Macaca mulatta)) (UniProt Q9MZJ3); assay: FACS rhesus whole blood NK cells, animal N0401
[3] = molecular target: NKG2A on cynomolgus monkey NK cells (cynomolgus monkey) (UniProt Q68VD2); assay: FACS cynomolgus whole blood, animal 1221
[4] = molecular target: NKG2A on rhesus monkey (Macaca mulatta) NK cells (rhesus monkey (Macaca mulatta)) (UniProt Q9MZJ3); assay: FACS rhesus whole blood, animal R00055
[5] = molecular target: NKG2A on baboon NK cells (baboon); assay: FACS baboon whole blood NK cells, animal V9812
[6] = molecular target: NKG2A on baboon NK cells (baboon); assay: FACS baboon whole blood NK cells, animal PA983
[7] = molecular target: NKG2A on rhesus monkey (Macaca mulatta) NK cells (rhesus monkey (Macaca mulatta)) (UniProt Q9MZJ3); assay: FACS rhesus whole blood, animal R00041
[8] = molecular target: NKG2A on baboon NK cells (baboon); assay: FACS baboon whole blood NK cells, animal V9929
[9] = molecular target: NKG2A on rhesus monkey (Macaca mulatta) NK cells (rhesus monkey (Macaca mulatta)) (UniProt Q9MZJ3); assay: FACS rhesus whole blood, animal R00073 (5.6 kg)
[10] = molecular target: NKG2A on rhesus monkey (Macaca mulatta) NK cells (rhesus monkey (Macaca mulatta)) (UniProt Q9MZJ3); assay: FACS rhesus whole blood, animal R00073 (6.1 kg)
[11] = molecular target: NKG2A on rhesus monkey (Macaca mulatta) NK cells (rhesus monkey (Macaca mulatta)) (UniProt Q9MZJ3); assay: FACS rhesus whole blood, animal R99273
[12] = molecular target: NKG2A on cynomolgus monkey NK cells (cynomolgus monkey) (UniProt Q68VD2); assay: FACS cynomolgus whole blood, animal M859
[13] = molecular target: NKG2A on baboon NK cells (baboon); assay: FACS baboon whole blood NK cells, animal V9926
[14] = molecular target: NKG2A on baboon NK cells (baboon); assay: FACS baboon whole blood NK cells, animal V857C
[15] = molecular target: NKG2A on cynomolgus monkey NK cells (cynomolgus monkey) (UniProt Q68VD2); assay: FACS cynomolgus whole blood, animal T788
[16] = molecular target: NKG2A on cynomolgus monkey NK cells (cynomolgus monkey) (UniProt Q68VD2); assay: FACS cynomolgus whole blood, animal AL303
[17] = molecular target: NKG2A on rhesus monkey (Macaca mulatta) NK cells (rhesus monkey (Macaca mulatta)) (UniProt Q9MZJ3); assay: FACS rhesus whole blood, animal 34459
[18] = molecular target: NKG2A on rhesus monkey (Macaca mulatta) NK cells (rhesus monkey (Macaca mulatta)) (UniProt Q9MZJ3); assay: FACS rhesus whole blood NK cells, animal MM031
[19] = molecular target: NKG2A on cynomolgus monkey NK cells (cynomolgus monkey) (UniProt Q68VD2); assay: FACS cynomolgus whole blood, animal AL389
[20] = molecular target: NKG2A on baboon NK cells (baboon); assay: FACS baboon whole blood NK cells, animal V918C
[21] = molecular target: NKG2A on rhesus monkey (Macaca mulatta) NK cells (rhesus monkey (Macaca mulatta)) (UniProt Q9MZJ3); assay: FACS rhesus whole blood, animal R00085
[22] = molecular target: NKG2A on cynomolgus monkey NK cells (cynomolgus monkey) (UniProt Q68VD2); assay: FACS cynomolgus whole blood, animal T270
[23] = molecular target: NKG2A on rhesus monkey (Macaca mulatta) NK cells (rhesus monkey (Macaca mulatta)) (UniProt Q9MZJ3); assay: FACS rhesus whole blood, animal R00077
[24] = molecular target: NKG2A on rhesus monkey (Macaca mulatta) NK cells (rhesus monkey (Macaca mulatta)) (UniProt Q9MZJ3); assay: FACS rhesus whole blood, animal R00099
[25] = molecular target: NKG2A on cynomolgus monkey NK cells (cynomolgus monkey) (UniProt Q68VD2); assay: FACS cynomolgus whole blood, mean of 10 animals
[26] = molecular target: NKG2A on rhesus monkey (Macaca mulatta) NK cells (rhesus monkey (Macaca mulatta)) (UniProt Q9MZJ3); assay: FACS rhesus whole blood NK cells, animal *8703

Sequence of UniProt Q9MZJ3 (Q9MZJ3 whole entry): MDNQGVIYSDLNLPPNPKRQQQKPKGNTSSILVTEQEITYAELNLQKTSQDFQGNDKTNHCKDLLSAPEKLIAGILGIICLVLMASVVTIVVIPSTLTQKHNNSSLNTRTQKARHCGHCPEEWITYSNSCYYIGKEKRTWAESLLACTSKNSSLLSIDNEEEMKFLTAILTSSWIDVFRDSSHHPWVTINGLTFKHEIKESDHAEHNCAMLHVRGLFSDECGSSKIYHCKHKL
Sequence of UniProt Q68VD2 (Q68VD2 entry or part of it): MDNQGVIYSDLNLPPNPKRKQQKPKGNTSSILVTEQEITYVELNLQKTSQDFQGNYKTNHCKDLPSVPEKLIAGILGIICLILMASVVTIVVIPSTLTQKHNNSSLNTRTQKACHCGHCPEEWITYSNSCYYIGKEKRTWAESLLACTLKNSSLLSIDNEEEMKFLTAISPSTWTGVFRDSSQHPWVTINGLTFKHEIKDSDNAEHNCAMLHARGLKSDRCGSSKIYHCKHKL

Q: With mouse IgG1 isotype control (antibody) as the substance, how does the % NK+ [1] read?
A: 0.2%

Q: What about the MFI [1] of the same substance?
A: 0.39

Q: And the % [2]?
A: 0.5%

Q: And the % NK+ [3]?
A: 0.6%

Q: And the MFI [3]?
A: 0.53

Q: And the % NK+ [4]?
A: 0.6%

Q: What about the MFI [4] of the same substance?
A: 0.7

Q: What about the % [5] of the same substance?
A: 1.3%

Q: What about the tot. MFI [5] of the same substance?
A: 1.2

Q: And the % [6]?
A: 0.1%

Q: What about the tot. MFI [6] of the same substance?
A: 0.7

Q: And the % NK+ [7]?
A: 0.9%

Q: And the MFI [7]?
A: 0.48

Q: And the % [8]?
A: 0.3%

Q: And the tot. MFI [8]?
A: 0.2

Q: And the % NK+ [9]?
A: 0.5%

Q: And the MFI [9]?
A: 0.4

Q: What about the % NK+ [10] of the same substance?
A: 0.7%

Q: What about the MFI [10] of the same substance?
A: 0.59

Q: And the % NK+ [11]?
A: 0.5%

Q: What about the MFI [11] of the same substance?
A: 0.54

Q: What about the % NK+ [12] of the same substance?
A: 0.2%

Q: And the MFI [12]?
A: 0.51

Q: And the % [13]?
A: 0.5%

Q: And the tot. MFI [13]?
A: 0.2

Q: What about the % [14] of the same substance?
A: 0.8%

Q: What about the tot. MFI [14] of the same substance?
A: 1.4

Q: And the % NK+ [15]?
A: 0.3%

Q: What about the MFI [15] of the same substance?
A: 0.5

Q: And the % NK+ [16]?
A: 0.13%

Q: What about the MFI [16] of the same substance?
A: 0.63

Q: What about the % NK+ [17] of the same substance?
A: 1.4%

Q: What about the MFI [17] of the same substance?
A: 0.76

Q: What about the % [18] of the same substance?
A: 0.4%

Q: What about the % NK+ [19] of the same substance?
A: 0.3%

Q: What about the MFI [19] of the same substance?
A: 0.63

Q: What about the % [20] of the same substance?
A: 0.3%

Q: What about the tot. MFI [20] of the same substance?
A: 1.1

Q: And the % NK+ [21]?
A: 0.9%

Q: And the MFI [21]?
A: 0.7

Q: What about the % NK+ [22] of the same substance?
A: 0.2%

Q: And the MFI [22]?
A: 0.54

Q: And the % NK+ [23]?
A: 0.4%

Q: What about the MFI [23] of the same substance?
A: 0.41

Q: And the % NK+ [24]?
A: 1.2%

Q: And the MFI [24]?
A: 0.56

Q: What about the % NK+ (Mean) [25] of the same substance?
A: 0.3%

Q: And the MFI (Mean) [25]?
A: 0.6

Q: What about the % [26] of the same substance?
A: 0.4%
